Data published in US8642565B2, “Increase of immune response and targeting by antigens and/or drug linkage” (Wittycell, priority 2007, dated 2014).

Experiments:
[1] = tested on: SIINFEKL (SEQ ID NO:1) induced CD8+ T cell response; SINFEKL-loaded targets; test: VITAL in vivo cytotoxicity assay, intravenous immunization (Example 1); design: species or system C57BI/6J CD45.2 female mice; details: 1 μg to 100 μg of Ova peptide alone, day 0, read out day 11
[2] = tested on: SIINFEKL-H2K^b specific CD8+ cells; test: Detection of SIINFEKL specific CD8+ cells by FACS, H-2 Kb SIINFEKL pentamer and CD8 co-staining (Example 2); type: in vivo, C57BI/6J CD45.2 female mice; details: 1 μg conjugate, intramuscular route, day 0 and 14; compared with mice treated with 50 μg of OVA alone (FIG. 2)
Source text: Forty-eight 9 week-old C57BI/6J CD45.2 female mice were used for immunisation. They were split into 9 groups: groups 1 and 2 included 3 animals and groups 3 to 9 included six animals.
The ovalbumin peptide consists in the […] sequence (SEQ ID NO:2) and the glycolipids used are PBS-6, PBS-14 and PBS-57.
The mice were vaccinated by intramuscular route at day 0 and 14 with the following solutions according to the different groups:
Detection of SIINFEKL specific CD8+ cells was monitored by FACS following H-2 Kb SIINFEKL pentamer and CD8 co-staining.

[3] = tested on: SIINFEKL (SEQ ID NO:1) induced CD8+ T cell response; test: VITAL in vivo cytotoxicity assay, intramuscular immunization, OVA (Example 3); design: species or system C57BI/6J CD45.2 female mice; details: 1 μg conjugate, day 0, compared with mice treated with 50 μg of OVA alone (FIG. 3)
Protocol: Sixty-nine 9 week-old C57BI/6J CD45.2 female mice were used for immunisation. They were split into 14 groups: groups 1 to 5 included 3 animals, and groups 6 to 14 included 6 animals.
The in vivo cytotoxicity of SIINFEKL (SEQ ID NO:1) induced CD8^+ T cell response was evaluated by VITAL assay as described in Example 1.
The short ovalbumin peptide consists in the SIINFEKL sequence (SEQ ID NO:1; amino acids 257 to 264 of ovalbumin), the long ovalbumin peptide consists in the […] sequence (SEQ ID NO:2; amino acids 250 to 269 of ovalbumin) and the glycolipids used are PBS-6, PBS-14 and PBS-57.
The mice were vaccinated by intramuscular route at day 0 with the following solutions according to the different groups:
The read out was as described in Example 1.

[4] = tested on: OVA specific IgG1 antibodies; test: Ovalbumin-specific IgG1 antibody titer after immunization (Example 4); type: in vivo, mice; details: 1 μg conjugate, intramuscular route, day 0 and day 14, samples 14 days after second immunization; compared with 50 μg of OVA alone (FIG. 4)
Protocol: (§1) The aim of this study was to evaluate IgG1 and IgG2a antibody response following immunization with ovalbumin in combination with different adjuvant covalently linked.
(§2) The sera tested were as follows:
(§3) Group 1; 6 mice immunized with 500 μg of ova protein with CFA/IFA (Positive control)
(§4) Group 2: 6 mice immunized with 50 μg of long ova peptide of sequence […] (SEQ ID NO:3; amino acids 316 to 338 of ovalbumin)
(§5) Group 3: 6 mice immunized with 50 μg of short ova peptide of sequence KISQAVHAAHA (SEQ ID NO:4; amino acids 323 to 333 of ovalbumin)
(§6) Group 4: 6 mice immunized with 1 μg PBS-6-OVA
(§7) Group 5: 6 mice immunized with 1 μg PBS-14-OVA
(§8) Group 6: 6 mice immunized with 1 μg PBS-57-OVA
(§9) All mice were immunized by intramuscular route at day 0 and day 14. All samples were collected 14 days following the second immunization and the IgG1 and IgG2a titers specific of ovalbumin were evaluated.

[5] = tested on: OVA specific IgG2a antibodies; test: Ovalbumin-specific IgG2a antibody titer after immunization (Example 4); type: in vivo, mice; details: 1 μg conjugate, intramuscular route, day 0 and day 14, samples 14 days after second immunization; compared with 50 μg of OVA alone (FIG. 5)
Protocol: as §1, §2, §3, §4, §5, §6, §7, §8, §9

Row | Molecule | antigen-specific lysis (percent specific lysis) [1] | percentage of SIINFEKL-H2K^b specific CD8+ in the blood [2] | percentage of SIINFEKL-specific cytolytic activity in the blood [3] | titer of IgG1 specific of ovalbumin [4] | titer of IgG2a specific of ovalbumin [5]
1 | Ova peptide: ovalbumine peptide of SIINFEKL sequence (SEQ ID NO:1), amino-acids 257-264 of ovalbumine [reference compound] | no antigen-specific lysis | – | – | – | –
2 | OVA covalently linked to PBS-6: Examples 2-4: ovalbumin peptide covalently linked to PBS-6 (Example 2 peptide VSGLEQLESIINFEKLTEWTS) (conjugate, UniProt P01012 2-386, looked up, covalently linked to glycolipid PBS-6) Ovalbumin: GSIGAASMEFCFDVFKELKVHHANENIFYCPIAIMSALAMVYLGAKDSTRTQINKVVRFDKLPGFGDSIEAQCGTSVNVHSSLRDILNQITKPNDVYSFSLASRLYAEERYPILPEYLQCVKELYRGGLEPINFQTAADQARELINSWVESQTNGIIRNVLQPSSVDSQTAMVLVNAIVFKGLWEKAFKDEDTQAMPFRVTEQESKPVQMMYQIGLFRVASMASEKMKILELPFASGTMSMLVLLPDEVSGLEQLESIINFEKLTEWTSSNVMEERKIKVYLPRMKMEEKYNLTSVLMAMGITDVFSSSANLSGISSAESLKISQAVHAAHAEINEAGREVVGSAEAGVDAASVSEEFRADHPFLFCIKHIATNAVLFFGRCVSP | – | stronger percentage | stronger percentage | higher titers | higher titers
3 | OVA covalently linked to PBS-14 (conjugate, UniProt P01012 2-386, looked up, covalently linked to glycolipid PBS-14) Ovalbumin: GSIGAASMEFCFDVFKELKVHHANENIFYCPIAIMSALAMVYLGAKDSTRTQINKVVRFDKLPGFGDSIEAQCGTSVNVHSSLRDILNQITKPNDVYSFSLASRLYAEERYPILPEYLQCVKELYRGGLEPINFQTAADQARELINSWVESQTNGIIRNVLQPSSVDSQTAMVLVNAIVFKGLWEKAFKDEDTQAMPFRVTEQESKPVQMMYQIGLFRVASMASEKMKILELPFASGTMSMLVLLPDEVSGLEQLESIINFEKLTEWTSSNVMEERKIKVYLPRMKMEEKYNLTSVLMAMGITDVFSSSANLSGISSAESLKISQAVHAAHAEINEAGREVVGSAEAGVDAASVSEEFRADHPFLFCIKHIATNAVLFFGRCVSP | – | stronger percentage | stronger percentage | higher titers | higher titers
4 | OVA covalently linked to PBS-57 (conjugate, UniProt P01012 2-386, looked up, covalently linked to glycolipid PBS-57) Ovalbumin: GSIGAASMEFCFDVFKELKVHHANENIFYCPIAIMSALAMVYLGAKDSTRTQINKVVRFDKLPGFGDSIEAQCGTSVNVHSSLRDILNQITKPNDVYSFSLASRLYAEERYPILPEYLQCVKELYRGGLEPINFQTAADQARELINSWVESQTNGIIRNVLQPSSVDSQTAMVLVNAIVFKGLWEKAFKDEDTQAMPFRVTEQESKPVQMMYQIGLFRVASMASEKMKILELPFASGTMSMLVLLPDEVSGLEQLESIINFEKLTEWTSSNVMEERKIKVYLPRMKMEEKYNLTSVLMAMGITDVFSSSANLSGISSAESLKISQAVHAAHAEINEAGREVVGSAEAGVDAASVSEEFRADHPFLFCIKHIATNAVLFFGRCVSP | – | stronger percentage | stronger percentage | higher titers | higher titers
